Laboratory results taken from article PMC3962490, “The Yeast Ess1 Prolyl Isomerase Controls Swi6 and Whi5 Nuclear Localization” (G3: Genes|Genomes|Genetics, 2014).

Target: all the peptides, including the phosphorylated CTD peptide
Test: BLI; Octet RED, 24°; N-terminally biotinylated peptides immobilised on streptavidin biosensors; Ess1 in solution (3, 10, 30 μM); 20 mM Tris-HCl pH 8.0, 1 mg/mL BSA; no-peptide sensor subtracted; apparent dissociation constants (Kapp) from kinetic and equilibrium data, considering only the predominant faster-dissociating signal; for unphosphorylated peptides Kapp estimated from the signal at 30 μM Ess1

kon: 17500 to 27100 M⁻¹ s⁻¹
B1: Recombinant S. cerevisiae Ess1 protein (enzyme)
chain: MPSDVASRTGLPTPWTVRYSKSKKREYFFNPETKHSQWEEPEGTNKDQLHKHLRDHPVRVRCLHILIKHKDSRRPASHRSENITISKQDATDELKTLITRLDDDSKTNSFEALAKERSDCSSYKRGGDLGWFGRGEMQPSFEDAAFQLKVGEVSDIVESGSGVHVIKRVG
